According to article PMC4062475, “Cloning, Expression and Characterization of UDP-N-Acetylglucosamine Enolpyruvyl Transferase (MurA) from Wolbachia Endosymbiont of Human Lymphatic Filarial Parasite Brugia malayi” (PLoS ONE, 2014):

T1: wBm-MurA (Wolbachia endosymbiont of Brugia malayi, UniProt Q5GRP6)
T1 construct: full-length 1278 bp ORF in pET28a (BamHI/XhoI), His6-tagged, expressed in E. coli Rosetta(DE3)pLysS, Ni-NTA purified, ~51 kDa, tag removal not mentioned
T1 sequence (Q5GRP6 1-425): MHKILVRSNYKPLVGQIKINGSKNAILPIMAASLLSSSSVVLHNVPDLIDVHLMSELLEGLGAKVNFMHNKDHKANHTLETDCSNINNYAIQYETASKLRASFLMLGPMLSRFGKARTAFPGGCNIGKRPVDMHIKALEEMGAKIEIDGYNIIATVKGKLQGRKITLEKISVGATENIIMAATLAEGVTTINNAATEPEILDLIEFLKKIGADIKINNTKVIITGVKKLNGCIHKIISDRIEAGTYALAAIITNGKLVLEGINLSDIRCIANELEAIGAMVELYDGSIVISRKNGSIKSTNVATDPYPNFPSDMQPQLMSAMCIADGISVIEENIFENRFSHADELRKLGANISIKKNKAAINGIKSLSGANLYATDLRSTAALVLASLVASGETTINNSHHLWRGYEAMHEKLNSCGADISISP

B1: wBm-MurA (Wolbachia endosymbiont strain TRS of Brugia malayi) (protein)
chain: T1 sequence (Q5GRP6 1-425)
notes: full-length 1278 bp ORF in pET28a (BamHI/XhoI), His6-tagged, expressed in E. coli Rosetta(DE3)pLysS, Ni-NTA purified, ~51 kDa, tag removal not mentioned

Legend:
[1] = biological target: T1, wBm-MurA; assay: malachite green phosphate release assay, […] min pre-incubation, […] h reaction; format: biochemical; conditions: 5 mM PEP, 0.6 mM UDPAG, pH 7.5, 37°C; competitive with PEP; covalent (as stated by authors)
[2] = substrate: CC(=O)N[C@H]1[C@@H](OP(=O)(O)OP(=O)(O)OC[C@H]2O[C@@H](n3ccc(=O)[nH]c3=O)[C@H](O)[C@@H]2O)O[C@H](CO)[C@@H](O)[C@@H]1O; assay: malachite green phosphate release assay, Michaelis-Menten non-linear fit; format: biochemical, Wolbachia endosymbiont of Brugia malayi; conditions: 1 mM PEP, 50 mM Tris-HCl pH 7.5, 10 mM KCl, 1 mM DTT, 10% glycerol, 37°C
[3] = substrate: C=C(OP(=O)(O)O)C(=O)O; assay: as above; format: biochemical, Wolbachia endosymbiont of Brugia malayi; conditions: 5 mM UDPAG, 50 mM Tris-HCl pH 7.5, 10 mM KCl, 1 mM DTT, 10% glycerol, 37°C

Molecule | fold decrease of activity at 50 mM [1] | Km [2] | Km [3]
C[C@@H]1O[C@@H]1P(=O)(O)O [fosfomycin] | ~ 2 fold | – | –
B1 | – | 31.49 µM | 9.198 µM
